Data reported in PMC10452355, “Phosphoserine Aminotransferase Pathogenetic Variants in Serine Deficiency Disorders: A Functional Characterization” (Biomolecules, 2023).

Molecular target: the molecule itself
Assay: SEC; Superdex 200 Increase 5/150 GL, 50 mM HEPES pH 7, 300 mM KCl, room temperature, 0.3 mL/min; loaded at 23 µM, eluting at around 7.5 µM; apparent mass against a calibration curve; self-association (dimer)

B1: phosphoserine aminotransferase (PSAT), wild type, human, PSAT beta (enzyme)
chain: MDAPRQVVNFGPGPAKLPHSVLLEIQKELLDYKGVGISVLEMSHRSSDFAKIINNTENLVRELLAVPDNYKVIFLQGGGCGQFSAVPLNLIGLKAGRCADYVVTGAWSAKAAEEAKKFGTINIVHPKLGSYTKIPDPSTWNLNPDASYVYYCANETVHGVEFDFIPDVKGAVLVCDMSSNFLSKPVDVSKFGVIFAGAQKNVGSAGVTVVIVRDDLLGFALRECPSVLEYKVQAGNSSLYNTPPCFSIYVMGLVLEWIKNNGGAAAMEKLSSIKSQTIYEIIDNSQGFYVCPVEPQNRSKMNIPFRIGNAKGDDALEKRFLDKALELNMLSLKGHRSVGGIRASLYNAVTIEDVQKLAAFMKKFLEMHQL
notes: human phosphoserine aminotransferase, splice form PSAT beta (the long form; PSAT alpha lacks 46 amino acids between V290 and S337); PLP-dependent homodimer; also called wt PSAT; WT; source: E. coli BL21(DE3) tuner, purified (IMAC, Talon superflow); not shown: His tag (from the IMAC purification on Talon)
With B1 the “stoichiometry N” value was 2.
